Data on 4 molecules can be found in patent US20170051058A1 (UNIVERSITAET DUISBURG ESSEN, published 2017).

The target of assay [1] is CEACAM1 on human CD8+ T cells from the blood of healthy donors (human) (UniProt P13688). Nature of the assay: flow cytometry on human PBMCs, gated on CD8+ T cells, anti-mouse IgG-APC. (A flow cytometer gives signals particle by particle.)
Assay [2] addresses T1, CEACAM1 (human, UniProt P13688 35-526, limits assumed).
T1 construct: also called entire CEACAM1; CD66a
T1 sequence: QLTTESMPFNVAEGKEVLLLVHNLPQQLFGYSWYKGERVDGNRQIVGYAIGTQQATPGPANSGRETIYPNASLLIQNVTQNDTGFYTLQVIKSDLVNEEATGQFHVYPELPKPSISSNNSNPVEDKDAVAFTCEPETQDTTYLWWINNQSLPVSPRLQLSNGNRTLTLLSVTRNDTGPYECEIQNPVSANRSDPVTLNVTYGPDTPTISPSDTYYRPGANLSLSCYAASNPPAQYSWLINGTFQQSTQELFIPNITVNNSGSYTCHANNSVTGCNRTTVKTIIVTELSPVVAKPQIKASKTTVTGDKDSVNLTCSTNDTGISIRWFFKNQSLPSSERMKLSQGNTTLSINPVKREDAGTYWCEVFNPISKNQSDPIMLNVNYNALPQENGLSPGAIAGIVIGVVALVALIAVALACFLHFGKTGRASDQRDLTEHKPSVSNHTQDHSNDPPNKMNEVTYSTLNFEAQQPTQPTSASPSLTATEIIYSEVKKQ
Nature of the assay: method not stated.

The target of assay [3] is CEACAM1 without N-domain (human) (UniProt P13688). Nature of the assay: sandwich ELISA, CEACAM1dN from CHO transfectants captured by anti-CEA, detection with anti-mouse Ig-HRP. (In general: ELISA stands for enzyme-linked immunosorbent assay.)
The target in assay [4] is T1, CEACAM1. Put plainly: sandwich ELISA, CEACAM1 from CHO transfectants captured by anti-CEA, detection with anti-mouse Ig-HRP. The method, then:
Sandwich ELISA was coated with 0.25 μg/100 microL/well of anti-CEA (Dako). ELISA was washed and remaining binding sites blocked. Subsequently, CEACAM1 or CEACAM1deltaN (therefore CEACAM1 without N-domain, CEACAM1dN) was added thereto. CEACAM1 and CEACAM1deltaN were obtained from CHO transfectants. The ELISA was then incubated with differing antibodies. After 4 hours of incubation, the ELISA was washed and incubated with anti-mouse Ig-HRP. After 1 hour, the substrate TMB was added and the absorption measured at 450 nm.

isotype control (antibody) came in with a mean fluorescence intensity in assay [1] of 436 MFI.

B1: anti-human CEACAM1 antibody (clone 6G5J) (antibody, V domains shown)
VH: KPGETVKISCKTSGYIFRNYGMKWVKQAPGKGLKWMGWINTYTGEPTYADDFKGRFAFSLETSASTAYLQINNLKNEDMATYFCARRGMITTSNYALDNWGQGTSVTVSS
VL: SSLSASLGDRVTISCRASQDISNYLNWYQQKPDGTIKLLIYYTSKLHSGVPSRFSGSGSGTDYSLTISNLDQEDIATYFCQQGNTLPWTFGGGTKLEIK
notes: Mouse monoclonal antibody from a hybridoma; also called antibody 6G5J
Regarding B1, the dissociation constant Kd – broadly, the concentration at which binding is half-saturated – in the assay with CEACAM1 [2] was 23 nM. In assay [3], this molecule gave an absorption at 450 nm (mean) (absorption at 450 nm) of 0.066. Also, the “absorption at 450 nm (mean)” value in the assay with CEACAM1 [4] came to 1.09 absorption at 450 nm.

B2: anti-human CEACAM1 antibody (clone 18-20) (antibody, V domains shown)
VH: KPGETVKISCKASGYTFTVYGMNWVKQAPGKDLKWMGWINTYTGEPTYADDFKGRFAFSLETSASTAYLQINNLKNEDMATYFCARKAFYRYDGGMDYWGQGTSVTVSS
VL: SSLSASLGGKVTITCKASQDINKFLAWYQHKPGKGPRLLIHYTSTLQPGIPSRFSGSGSGRDYSFSISNLEPEDIATYYCLQYDNLYTFGGGTKLEIK
notes: Mouse monoclonal antibody from a hybridoma; also called antibody 18-20
On to B2, for which the dissociation constant (Kd) in the assay with CEACAM1 [2] was 26 nM. For the same molecule, the absorption at 450 nm (mean) (absorption at 450 nm) in assay [3] came out at 0.053. Further, the “absorption at 450 nm (mean)” value with CEACAM1 [4] came to 1.3 absorption at 450 nm.

B3: anti-human CEACAM1 antibody (clone B3-17) (antibody, V domains shown)
VH: GPELVKPGTSVKMSCKASGYTFTTYVMHWVQQKPGQGLDWIGFFNPYNDGTKYNEKFKGKATLTSDKSSSTAYMELSSLTSEDSAVYYCARWAYDGSYAYWGQGTTLTVSS
VL: SYLSVFLGGRVTITCKASDHINNWLAWYQQKPGNAPRLLISGATSLETGVPSRFSGSGSGKDYTLSIISLQTEDVATYYCQQYWRTPFTFGSGTKLEIK
notes: Mouse monoclonal antibody from a hybridoma; also called antibody B3-17; mAB, B3-17
B3: binding in the assay with CEACAM1 [2] was put at a Kd of 10 nM. In assay [3], this molecule gave an absorption at 450 nm (mean) (absorption at 450 nm) of 0.91. In the assay with CEACAM1 [4], the “absorption at 450 nm (mean)” value is 0.62 absorption at 450 nm.
